The target of assay [1] is T1, Recombinant human PDGF-BB (human, UniProt P01127 82-190). Kind of assay: cell-based or functional assay.
The target in assay [2] is T1, Recombinant human PDGF-BB. Kind of assay: SPR (ProteOn), biotinylated PDGF-BB on neutravidin chip, DARPin injected; Kd from on- and off-rates. Here is the method:
(§1) Biotinylated PDGF-BB molecules from human and mouse were immobilized in a flow cell through binding to coated […] and the interaction with various selected DARPins was analyzed.
(§2) SPR was measured using a ProteOn instrument (BioRad) and measurement was performed according standard procedures known to the person skilled in the art. The running buffer was PBS, pH 7.4, containing 0.005% Tween 20®. Neutravidin was covalently immobilized on a GLC chip (BioRad) to a level of about 8000 resonance units (RU). Immobilization of PDGF-BB on the neutravidin coated chip was then performed. The interaction of DARPin PDGF-BB was then measured by injecting 100 μl running buffer (PBS containing 0.005% Tween®) containing serial dilutions of DARPins of concentration of […] (on-rate measurement), followed by a running buffer flow for between 10 minutes and up to 3 hours at a constant flow rate of 30 μl/min (off-rate measurement). The signals (i.e. resonance unit (RU) values) of an uncoated reference cell and a reference injection (i.e. injection of running buffer only) were subtracted from the RU traces obtained after injection of […] (double-referencing). From the SRP traces obtained from the on-rate and off-rate measurements the on- and off-rate of the corresponding DARPin PDGF-BB interaction can be determined.
(§3) Dissociation constants (Kd) were calculated from the estimated on- and off-rates using standard procedures known to the person skilled in the art.

For assay [3], the target named is T2, Recombinant murine PDGF-BB (mouse, UniProt P31240 82-190, limits assumed).
T2 construct: For SPR chemically biotinylated on primary amines and captured on neutravidin; also called mouse PDGF-BB; PDGF-BB (mouse)
T2 sequence (P31240 82-190 limits assumed): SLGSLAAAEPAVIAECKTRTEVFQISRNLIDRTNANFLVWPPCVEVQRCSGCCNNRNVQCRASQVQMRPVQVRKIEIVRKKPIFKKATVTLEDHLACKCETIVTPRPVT
Described as above. Here is the method: as §1, §2, §3

For assay [4], the target named is T1, Recombinant human PDGF-BB. In words: receptor competition ELISA: DARPin preincubated with PDGF-BB, free PDGF-BB captured on coated PDGFRbeta/Fc; mean IC50. As for the experimental part: (§4) The potency of PEGylated anti-PDGF-BB DARPins to inhibit the binding of human PDGF-BB to its receptor PDGFRbeta was determined in a in a receptor competition ELISA (based on PDGF-BB Quantikine, R&D Systems). PDGFRbeta/Fc chimera has been precoated on a microplate. The DARPins were preincubated in assay diluent from the PDGF-BB Quantikine kit (R&D Systems) with a defined amount of PDGF-BB and incubated at room temperature for 2 hours with shaking at 750 rpm. These preincubation mixtures were then transferred into the precoated wells and any PDGF-BB that is not blocked by the DARPins was bound by the immobilized receptor. After washing away any unbound substances, a horse radish peroxidase-linked polyclonal antibody specific for PDGF-BB was added to the wells. Following a wash to remove any unbound antibody-enzyme reagent, a substrate solution was added to the wells and color was developing in proportion to the amount of PDGF-BB bound. The color development was stopped and the intensity of the color was measured at […]. Example titration curves are given for a set of DARPins in FIG. 2. IC₅₀ values were calculated from such titration curves obtained as described above using Graph Pad Prism software and standard procedures known to the person skilled in the art.

In assay [5] the target is T1, Recombinant human PDGF-BB. Kind of assay: receptor competition ELISA (PDGFRbeta), distinct single experiment of FIG. 2. As for the experimental part:
The inhibition of the binding of PDGF-BB to PDGFRbeta by various concentrations of DARPins with specificity for PDGF-BB and the corresponding fitted inhibition curves are shown for a distinct single experiment. The IC₅₀ values were then calculated to be about 20 and 18 pM for the DARPins #50 (D1) and #28 (D2), respectively. OD, optical density at 450 nm; C, concentration of DARPins in pM. The X axis is shown in logarithmic scale. See below for the definitions of DARPin #50 and 28.
as §4, with “After washing away any unbound substances, a horse radish peroxidase-linked polyclonal antibody specific for PDGF-BB was added to the wells. Following a wash to remove any unbound antibody-enzyme reagent, a substrate solution was added to the wells and color was developing in proportion to the amount of PDGF-BB bound.” left out, “Example titration curves are given for a set of DARPins in FIG. 2.” left out

Positions count from the first letter of the chain named.

T1 sequence (P01127 82-190 limits assumed): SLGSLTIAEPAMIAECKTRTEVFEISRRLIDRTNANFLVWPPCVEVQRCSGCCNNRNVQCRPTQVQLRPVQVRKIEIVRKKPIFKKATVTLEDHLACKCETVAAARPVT

B1: DARPin #49 (designed binder)
chain: MRGSHHHHHHGSDLGKKLLEAARAGQDDEVRILMANGADVNAQDLNGQTPLHLAADIGHLEIVEVLLKHGADVNAQDYAGSTPLRLAAWAGHLEIVEVLLKNGADVNANDYFGYTPLHLAAYFGHLEIVDVLLKHGADVNAQDKFGKTAFDISIDNGNEDLAEILQKLN
With B1, the “IC50 of inhibition of NIH-3T3 cell proliferation (WST-1)” value (shortened to “IC50 of inhibition … (WST-1)”) in assay [1] was found to be 1.9 nM. Besides, the Kd in assay [2] was found to be 0.0769 nM; in assay [3] it was 0.102 nM. Besides, the IC50 in assay [4] was determined as 0.066 nM.

B2: DARPin #59 (designed binder)
chain: B1 chain with D27G, R31H, D130E
Regarding B2, the “IC50 of inhibition … (WST-1)” value in assay [1] amounted to 2 nM. Further, the Kd in assay [2] stood at 0.171 nM.

B3: DARPin #50 (designed binder)
chain: MRGSHHHHHHGSDLGKKLLEAARAGQDDEVRELLKAGADVNAKDLNGQTPLHLAADIGHLEIVEVLLKAGADVNAKDYAGSTPLRLAAWAGHLEIVEVLLKAGADVNAKDYFGYTPLHLAAYFGHLEIVEVLLKAGADVNAQDKFGKTAFDISIDNGNEDLAEILQKLN
B3: the half-maximal inhibitory concentration (IC50) in assay [5] is approximately 0.02 nM; in assay [4], 0.032 nM. In addition, the dissociation constant (Kd) in assay [2] is 0.115 nM.

B4: DARPin #24 (designed binder)
chain: MRGSHHHHHHGSDLGKKLLEAARAGQDDEVRELLKAGADVNAKDEEGTTPLHYAAVWGHLEIVEVLLKAGADVNAQDIYGATPADLAALVGHEDIAEVLQKLN
Take B4: the “IC50 of inhibition … (WST-1)” value in assay [1] was 1.4 nM. The equilibrium dissociation constant (Kd) in assay [2] was determined as 0.0301 nM. The IC50 in assay [4] came to 0.015 nM.

B5: DARPin #28 (designed binder)
chain: B4 chain with E32I, L34M, K35A, A36N
Take B5: in assay [1], the “IC50 of inhibition … (WST-1)” value is 1.6 nM. Besides, the IC50 is approximately 0.018 nM in assay [5] and 0.016 nM in assay [4]. Further, the equilibrium dissociation constant (Kd) in assay [2] worked out at 0.0171 nM.

B6: DARPin #30 (designed binder)
chain: B4 chain with W57Y
Take B6: in assay [1], the “IC50 of inhibition … (WST-1)” value came out at 3.2 nM. In addition, the Kd in assay [2] came to 0.11 nM. Further, the 50% inhibitory concentration (IC50) in assay [4] was determined as 0.49 nM.

These data come from patent US20140005125A1 (Molecular Partners, published 2014).
